Experimental findings from US20090175872A1, “Treatment of Conditions Involving Demyelination” (BIOGEN Idec MA Inc., priority 2005, published 2009) are described below.

One assay concerns A2B5+ oligodendrocytes. Nature of the assay: Differentiation of A2B5+ oligodendrocytes treated with Sp35-Fc (O4 staining). The assay is classed as cell-based, rat. To be noted: increasing concentrations versus control-Fc, 48 h, FIG. 8. The method, then: Enriched populations of oligodendrocytes were grown from female Long Evans P2 rats as described by Conn, Meth. Neurosci. 2:1-4 (Academic Press; 1990) with modifications as follows. Briefly, the forebrain was dissected and placed in Hank's buffered salt solution (IBSS; Invitrogen). The tissue was cut into 1-mm fragments and was incubated at 37° C. for 15 min in 0.01% trypsin and 10 μg/ml DNase. Dissociated cells were plated on poly-L-lysine-coated T75 tissue culture flasks and were grown at 37° C. for 10 d in DMEM medium with 20% fetal calf serum (Invitrogen). Oligodendrocyte precursors (A2B5^+) were collected by shaking the flask overnight at 200 rpm at 37° C., resulting in a 95% pure population. Cultures were maintained in high-glucose Dulbecco's modified Eagle's medium (DMEM with FGF/PDGF (10 ng/ml; Peprotech) for 1 week. Removal of FGF/PDGF allowed A2B5+ cells to differentiate into O4^+ premyelinating oligodendrocytes after 3-7 d, and to differentiate into O4^+ and MBP^+ mature oligodendrocytes after 7-10 d. These differentiation states are readily apparent from changes in morphology: AB5^+ cells are bipolar in shape, O4^+ premyelinating oligodendrocytes have longer and more branched processes and MBP^+ mature oligodendrocytes contain myelin sheet structures between processes. […]

Assay [1] relates to co-cultures of dorsal root ganglion (DRG) neurons and oligodendrocytes. Nature of the assay: Myelination in co-cultures of DRG neurons and oligodendrocytes. Type of assay: cell-based, rat. As to the method:
The role of Sp35 in myelination was examined in vitro by treating co-cultures of dorsal root ganglion (DRG) neurons and oligodendrocytes with Sp35-Fc and testing for myelination by immunohistochemistry and electron microscopy. For these studies, it was necessary to first generate primary cultures of DRG neurons and of oligodendrocytes.
Female Long Evans rat E14-E17 embryonic dorsal root ganglia were cultured as described by Plant et al., J. Neurosci. 22:6083-91 (2002). Dissected DRGs were plated on poly-L-lysine-coated cover slips (100 μg/ml) for 2 weeks in the presence of fluorodeoxyuridine for days 2-6 and days 8-11 in NLA medium containing 1×B27, 100 ng/ml NGF (Invitrogen).
A2B5^+ oligodendrocytes were prepared as described in Example 1, and were harvested by trypsinization.
For coculture studies, A2B5^+ oligodendrocytes were added to DRG neuron drop cultures in the presence or absence of 10 μg/ml Sp35-Fc. The culture medium (Neurobasal medium supplemented with B27 and 100 ng/ml NGF) was changed, and fresh Sp35-Fc was added to the cells every 3 d. To identify changes in myelination, 2-week-old cultures were stained by immunohistochemical staining (“IHC”) for neurofilaments with anti-βIII-tubulin antibody to identify axons, or anti-MBP antibody to identify oligodendrocytes., and 4-week-old cultures were subjected to SDS-PAGE followed by western blot analyses to quantify the MBP. In selected examples, cells were fixed for electron microscopy studies by adding 2.5% gluteraldehyde directly onto the cover slips. Myelinated axons in the 2-week-old cultures were quantified by counting the number of myelinated internode bundles that were derived from single MBP^+ oligodendrocytes. Samples were analyzed in duplicate. Error bars denote individual determinations. P values in all studies were determined using a one-way analysis of variance. […]
We performed experiments to address the relative contributions to the myelination process of Sp35 in DRG neurons as compared to oligodendrocytes. We infected DRG neurons, oligodendrocytes and co-cultures (prepared as described in Example 5) with the FL-Sp35 and DN-Sp35 lentiviral vectors described in Example 1 and performed immunohistochemical straining for myelinated MBP^+ cells after two weeks. A 2-fold increase in MBP levels in co-cultures where both cells express DN-Sp35 and a 2-fold decrease in MBP levels in co-cultures where both cells express FL-Sp35 was observed (FIG. 10G).

B1: Sp35-Fc: extra-cellular portion of human Sp35 (residues 1-532) fused to the hinge and Fc region of human IgG1 (protein)
chain: TGCPPRCECSAQDRAVLCHRKRFVAVPEGIPTETRLLDLGKNRIKTLNQDEFASFPHLEELELNENIVSAVEPGAFNNLFNLRTLGLRSNRLKLIPLGVFTGLSNLTKLDISENKIVILLDYMFQDLYNLKSLEVGDNDLVYISHRAFSGLNSLEQLTLEKCNLTSIPTEALSHLHGLIVLRLRHLNINAIRDYSFKRLYRLKVLEISHWPYLDTMTPNCLYGLNLTSLSITHCNLTAVPYLAVRHLVYLRFLNLSYNPISTIEGSMLHELLRLQEIQLVGGQLAVVEPYAFRGLNYLRVLNVSGNQLTTLEESVFHSVGNLETLILDSNPLACDCRLLWVFRRRWRLNFNRQQPTCATPEFVQGKEFKDFPDVLLPNYFTCRRARIRDRKAQQVFVDEGHTVQFVCRADGDPPPAILWLSPRKHLVSAKSNGRLTVFPDGTLEVRYAQVQDNGTYLCIAANAGGNDSMPAHLHVRSYSPDWPHQPNKTFAFISNQPGE
modifications: left off: a dimerising Fc or GST
notes: extra-cellular portion of human Sp35 (residues 1-532) fused to the hinge and Fc region of human IgG1
Take B1: the “differentiation of A2B5+ cells into O4+ cells” value in the assay with A2B5+ oligodendrocytes was “promoted differentiation”. Further, the “internodes and nodes of Ranvier by electron microscopy” value in assay [1] (4-week co-cultures, FIG. 10C) is “Multiple wellformed internodes were observed”. In addition, the “expression of MBP (western blot)” value in assay [1] (4-week-old treated co-cultures, anti-MBP antibody) is reported as “increased”. In assay [1] (exogenously added), the “effect on myelination when both cell types overexpress DN-Sp35” value is recorded as “slight effects” and the “effect on myelination when either cell type overexpresses DN-Sp35 alone” value is “further enhanced myelination”. Moreover, in assay [1] (exogenously added, FL-Sp35 in either or both cell types), the “effect on inhibition of myelination by overexpression of FL-Sp35” value is recorded as “reversed the inhibition of myelination”. The “axonal myelination (MBP+ myelinated axons)” value in assay [1] (treatment for 2 weeks, dose-dependent, FIG. 10A) was “robust axonal myelination”.
